# Laboratory results as given in the RNAGym collection of RNA variant scans (doi:10.1073/pnas.2313332121).
# B1: TPR t1 (parent)
# chain: GACCAAUCUGCCCUCAGAGCUCGAGAACAUCUUCGGAUGCAGAGGAGGCAGGCUUCGGUGGCGCGAUAGCGCCAACGUCCUCAACCUCCAAUGCAUCCCACCACAUGAUGAUGCCUGAAGAGCCUUGGUUUUUUG
# Variants of: B1
# Test: polymerase ribozyme fitness, log enrichment relative to wild type (log ratio); higher = more active; in vitro selection for triplet polymerase activity
# Method in brief: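 A heterodimeric triplet polymerase ribozyme had each of its subunits mutagenized by PCR into a library, which was transcribed. One round of in vitro selection, done in triplicate, annealed each library with a biotinylated primer, its partner subunit and triplets, then incubated it frozen at −7 °C before gel excision of extended constructs, streptavidin-bead capture and RT-PCR. Fitness is the logarithm of genotype enrichment relative to wild-type enrichment, based on Illumina sequencing of inputs and outputs and inverse-variance-weighted replicate averages. A base-2 logarithm is used, and genotypes were kept only with ≥10 input reads and ≥1 read per output.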
row,Variant,polymerase ribozyme fitness (log ratio)
1,GACCAAUCUGCCGUCAGAGCUCGAGAACAUCUUCGGAUUCAGAGGAGGCAGGCUUCGGUGGCGCGAUAGCGCCAACGUCCUCAACCUCCAAUGCAUCCCACCACAUGAUGAUGCUUGAAGAGCCUUGGUUUUUUG [C13G G39U C115U],-2.63
2,GACCAAUCUGCCGUCAAAGCUCGAGAACAUCUUCGGAUGCAGAGGAGGCAGGCUUCGGUGGCGCGAUAGCGCCAACGUCCUCAACCUCCAAUGCAUCCCACCACAUGAUGAUGCUUGAAGAGCCUUGGUUUUUUG [C13G G17A C115U],-1.42
3,GACCAAUCUGCCGUCAGACCUCGAGAACAUCUUCGGAUGCAGAGGAGGCAGGCUUCGGUGUCGCGAUAGCGCCAACGUCCUCAACCUUCAAUGCAUCCCACCACAUGAUGAUGCCUGAAGAGCCUUGGUUUUUUG [C13G G19C G61U C88U],-4.01
4,GACCAAUCUGCCGUCAGAGCUCGAGAACAUCUUCGGAUGCAGAGGAGGCAGGCUUCGGUGGCGCGAUAGCGCCAACGUCCUCAACCUCCAAUGCAUCCCAUCACAUGAUGAUGCCUGAAGAGCCUUGGUUUUUUG [C13G C101U],-2.08
5,GACCAAUCUGCCGUCAGAGCUCGAGAACAUCUUCGGAUGCAGAGGAGGCACGCUUCGGUGCCGCGAUAGCGCCAACGUCCUCAACCUCCAAUGCAUCCCACCAUAUGAUGAUGCCUGAACAGCCUUGGUUUUUUG [C13G G51C G61C C104U G120C],-6.03
6,GACCAAUCUGCCGUCAGAGCUCGAGAACAUCUUCGGAUGCAGAGGAGGCAGGCUUGGGUGGCGCGAUACCGCCAACGUCCUCAACCUCAAAUGCAUCCCACCACAUGAUGAUGCCUUAAGAGCCUUGGUUUUUUG [C13G C56G G69C C89A G117U],-6.43
7,GACCAAUCUGCCGUCAGAGCUCGAGAACAUCUUCGGAUUCAGAGGAGGCAGGCAUCGGUGGCGCGAUAGCGCCAACGUCCUCAACCUCCAAUGCAUCCCACCACAUGAUGAUGCCUGAAGAGCCUUGGUUUUUUG [C13G G39U U54A],-2.59
8,GACCAAUCUGCCGUCAGAGCUCGAGAACAUCUUCUGAUGCAGAGGAGGCAGGCUUCGGUGUCGCGAUAGCGCCAACGUCCUCAACCUCCAAUGCAUCCCACUACAUGAUGAUGCCUGAAGAGCCUUGGUUUUUUG [C13G G35U G61U C102U],-6.42
9,GACCAAUCUGCCGUCAGAGCUCGAGAACAUCUUCGGAUGCAGAGGACGCAGGCUUCGGUGGCGCGAUAGCGCCAACGUCCUCAACCUCCAAUGCAUCCCACCACAUGAUGAUGCCUGAAGAGCCUUGGUUUUUUG [C13G G47C],-3.71
10,GACCAAUCUGCCGUCAGAGCUCGAGAACAUCUUCGUGUGCAGAGGAGGCAGGCUUCGGUGGCGCGAUAGCGCCAACGUCUUCAACCUCCAAUGCAUCCCACCACAUGAUGAUGCCUGAAGAGCCUUGGUUUUUUG [C13G G36U A37G C80U],-5.7
11,GACCAAUCUGCCGUCAGAGCUCGAGAACAUCUUCGGAUGCAGAGGAGGCAGGCUUCGGUGGCGCGAUAGCGCCAACGUCCUUAACCUCCAAUGCAUCCCACCACAUGAUGAUGCCUGAAGAGCCUUGGUUAUUUG [C13G C82U U131A],-2.89
12,GACCAAUCUGCCGUCAGAGCUCGAGAACAUCUUCGGAUGCAGAGGAGGCAGGCUUCGGUCGCGCGAUAGCGCCAACGUCCUCAACCUCCAAUGCAUCCCACCACAUGAUGAUGCCUGAAGAGCCUUGGUUUUUUG [C13G G60C],-1.52
13,GACCAAUCUGCCGUCAGAGCUCGAGAACAUCUUCGGAUGCAGAGGAGGCAGGCUUCGGUGGCGCGAUAGCGCCAACGUCAUGAACCUCCAAUGCAUCCCACCACAUGAUGAUGCCUGAAGAGCCUUGGUCUUUUG [C13G C80A C82G U130C],-4.35
14,GACCAAUCUGCCGUCAGAGCUCGAGAACAUCUUCGGAUGCAGAGGAGGCAGGCUUCGGUGGGGCGUUAGCGCCAACGUCCUCAACCUCCAAUGCAUCCCACCACAUGAUGAUUCCUGAAGAGCCUUGGUUUUUUG [C13G C62G A66U G113U],-7.31
15,GACCAAUCUGCCGUCAGAGCUCGAGAACAUCUUCGGAUGCAGAGGAGGCAGGCUUCGAUGGCGCGAUAGUGCCAACGUCCUCAACCUCCAAUGCAUCCCACCACCUGAUGAUGCCUGAAGAGCAUUAGUUUUUUG [C13G G58A C70U A105C C124A G127A],-4.77
16,GACCAAUCUGCCGUCAGAGCUCGAGAACAUCUUCGGAUGCAGAGGAGGCAGGCUUCGGUGGAGCGAUAGCGCCAACGUCCUCAACCUCCAAUGCAUCCCACCACAUGAUGAUGCCUGAAGAGCAUUGGUUUUUUG [C13G C62A C124A],0.6
17,GACCAAUCUGCCGUCAGAGCUCGAGAACAUCUUCGGAUGCAGAGGAGGCAGGGUUCGGCGGCGCGAUAGCGCCAACGUCCUCAACCUCCAAUGCAUCCCACCACAUGAUGAUGCCUGAAGAGCCUUGGUUUUGUG [C13G C53G U59C U133G],-1.68
18,GACCAAUCUGCCGUCAGAGCUCGAGAACAUCUUCGGAUGCAGAGGAGGCAGGCUUCGGUGGCGCGAUAGAGCCAACGUCCUCAACCUCCAAUGCAUCCCACCACAUGAUGAUGCCUGAAGAGCCUUGGUUUUUUG [C13G C70A],-2.2
19,GACCAAUCUGCCGUCAGAGCUCGAGAACAUCUUCGGAUGCAGAGGAUGCAGGCUUCGGUGGCGCGAUAGCGCCAACGUCCUCAACCAUCAAUGCAUCCCACCACAUGAUUAUGCCUGAAGAGCCUUGGUUUUUUG [C13G G47U U87A C88U G110U],-6.69
20,GACCAAUCUGCCGUCAGAGCUCGAGAACAUCUUCGGAUGCAGAGGAGGCAGGCUUCGGUGACGCGAUAGCGCCAACGUCCUCAACCUCCAAUGGAUCCCACCACAUGAUGAUGCCAGAAGAGCCUUGGUUUUUUG [C13G G61A C94G U116A],-6.69
21,GACCAAUCUGCCGUCAGAGCUCGAGAACAUCUUCGAAUGGAGAGGAGGCAGGCUUCGGUGGCGCGAUAGCGCCAACGUCCUCAACCUCCAAUGCAUCCCACCACAUGAUGAUGCCUGAAGAGCCUUGGUUUUUUG [C13G G36A C40G],-4.55

row,Variant,polymerase ribozyme fitness (log ratio)
1,GACCAAUCUGCCGUCAGAGCUCGAGAACAUCUUCGGAUGCAGAUGAGGCAGGCUUCGGUGGCGCGAUAGCGCCAACGUCCUAAACCUCCAAUGCAUCCCACCACAUGAUGAUGCCUGAAGAGCCUUGGUUUUUUG [C13G G44U C82A],-3.4
2,GACCAAUCUGCCGUCAGAGCUCGAGAACAUCUUCGGAUGCAGAGGAGGCAGGCUUCCGUGGCGCGAUAGCGCAAACGUCCUCAACCUCCAAUGCAUCCCACCACAUGAUAAUGCCUGAAGAGCCUUGGUUUUUUG [C13G G57C C73A G110A],-2.44
3,GACCAAUCUGCCGUCAGAGCUCGAGAACAUCUUCGGAUGCAGAGGAGGCAGUCUUCGGUGGCGCGAUAGCGCCAACGUCCUCAACCUCCAAUGCAUCCCACCACAUGAUGAUGCCUGAAGAGCCUUGGUUUUUUG [C13G G52U],-3.2
4,GACCAAUCUGCCGUCAGAGCUCGAGAACAUCUUCGGAUGCAGAGGAGGCAGUCUUCGGUAGCGCGAUAGCGCCAACGUCCUCAACCUCCAAUGCAUCCCACCAUAUGAUGAUGCGUGAAGCGCCUUGGUUUUUUG [C13G G52U G60A C104U C115G A121C],-3.16
5,GACCAAUCUGCCGUCAGAGCUCGAGAACAUCUUCGCAUGUAGAGGAGGCAGGCUUCGGUGGCGCGAUAGCGCCAACGUCCUCAACCUCCAAUGCAUCCCACCACAUGAUGAUGCCUGAAGAGCCUUGGUUUUUUG [C13G G36C C40U],-2.55
6,GACCAAUCUGCCGUCACAGCUCGAGAACAUCUUCGGAUGCAGAGGAGGCAGGCUUCGGUGGCGCGAUAGCGCCAACGUCCUCAACCUCCAAUGCAUCCCACCACAUGAUGAUGCCUGAAGAGCCUUGGUUUUUUG [C13G G17C],-4.94
7,GACCAAUCUGCCGUCAGAGCUCGAGAACAUCUUCGGAUGCAGAGGAGGCAGGCUUCGGUAGCGCGAUAGCGCCAACCUCCUCAACCUCCAAUGCAUCCCACCACAUGAUGAUGCCUGAAGAGCCUUGGUCUUUUG [C13G G60A G77C U130C],-3.08
8,GACCAAUCUGCCGUCAGAGCUCGAGAACAUCUUCGGAUGCAGAGUAGGCAGGCUUCGGUGGCGCGAUAGCGCCAACGUCCUCAACCUCAAAUGCAUCCCACCACAUGAUGAUGCCUGAAUAGCCUUGGUAUUUUG [C13G G45U C89A G120U U130A],-3.41
9,GACCAAUCUGCCGUCAGAGCUCGAGAACAUCUUCGUAUGCAGAGGAGGCAGGCUUCGGUAGCGCGAUAGCGCCAACGUCCUCAACCUCCAAUGCAUCCCACCACAUGAUUAUGCCUGAAGAGCCUUGGUUUUUUG [C13G G36U G60A G110U],-4.24
10,GACCAAUCUGCCGUCAGAGCUCGAGAACAUCUUCGGAUGUAGAGGAGGAAGGCUUCGGUGGCGAGAUAGCGCCAACGUCCUCAACCUCCAAUGCAUCCCCCCACAUGAUGAUGCUUGAAGAGCCUUGGUUUUUUG [C13G C40U C49A C64A A100C C115U],-6.9
11,GACCAAUCUGCCGUCAGAGCUCGAGAACAUCUUCGGAUGCAGAGGAGGCAGGCUUCGGUGGCGCGAUAGCGACAACGGCCUCAACCUCCAAUGCAUCCCACCACAUGAUGAUGCCUGAAGAGCCUUGGUUUUUUG [C13G C72A U78G],-2.9
12,GACCAAUCUGCCGUCAGAGCUCGAGAACAUCUUCGGAUGCAGAGGAGGCAGGCUUCGGUGGCGCGAUAGCCCCAACGUCCUCAACCUCCAUUGCAUCCCACCACAUGAUGAUGCCUGAAGAGCCUUGGUUUUUUG [C13G G71C A91U],-3.97
13,GACCAAUCUGCCGUCAGAGCUCGAGAACAUCUUCGGAUGCAGAGGAGGCAGGCUUAGGUGGCACGAUAGCGCCAACGUCCUCAACCUCCAAUGCAUCCCACCACAUGAUGAUGCCUGAAGAGCCUUGGUUUUUUG [C13G C56A G63A],-3.78
14,GACCAAUCUGCCGUCAGAGCUCGAGAACAUCUUCGGAUGCAGAGGAGCCAGGCUUCGGUGGCUCGAUAGCGCCAACGUCCUCAACCUCCAAUGCAUCCCACCACCUGAUGAUGCCUGAAGAGCCUUGGUUUUUUG [C13G G48C G63U A105C],-5.9
15,GACCAAUCUGCCGUCAGAGCUCGAGAACAUCUUCGGAUGCAUAGGAGGUAGGCUUCGGUGUCGCGAUAGCGCCAACGUCCUCAACCUCCAAUGCAUCCCACCACAUGAUGAUGCCUGAAGAGCCUUGGUAUUUUG [C13G G42U C49U G61U U130A],-4.93
16,GACCAAUCUGCCGUCAGAGCUCGAGAACAUCUUCGGAUGCAGAAGAGCCAGGCUGCGGUGGCGCGAUAGCGCCAACGUUCUCAACCUCCAAUGCAUCCCACCACAUGAUGAUGCCUGAAGAGCGUUGGUUUUUUG [C13G G44A G48C U55G C79U C124G],-0.404
17,GACCAAUCUGCCGUCAGAGCUCGAGAACAUCUUCGGAUGCAGAGGAGGCAGGCUUCGGUGGUGCGAUAGCGCCAACGUCCACAACCUCCAAUGUAUCCCAUCACAUGAUGAUGCCUGAAGAGCCUUGGUUUUUUG [C13G C62U U81A C94U C101U],-3.12
18,GACCAAUCUGCCGUCAGAGCUCGAGAACAUCUUCGGAUGCAGAGAAGACAGGCUUCGGUGCCGCGAUAGCGCCAACGUCCUCAACCUCCAAUGCAUCCCACCACAUGAUGAUGCCUGAAGAGCCUUGGUUUUUUG [C13G G45A G48A G61C],-3.73
19,GACCAAUCUGCCGUCAGAGCUCGAGAACAUCUUCCGAUGCAGAGGAGGCAGGCUUCGGUGGCGUGAUAGCGCCAACGUCCUCAACCUCCGAUACAUACCACCACAUGAUGAUGCCUGAAGAGCAUUGGUUUUUUG [C13G G35C C64U A90G G93A C97A C124A],-5.83
20,GACCAAUCUGCCGUCAGAGCUCGAGAACAUCUUCGGAUGCAGAGGAGGCAGGCUUCGGUGGCCCGAUAGCGCCAACGUCCUCAAGCUCCAAUGCAUCCCACCACAUGAUGAAGCCUGAACAGCCUUGGUUUUUUG [C13G G63C C85G U112A G120C],-1.45
21,GACCAAUCUGCCGUCAGAGCUCGAGAACAUCUUCGGAUGCAGAGGAGGCAGGCUUCGGUGGUGCGAUAGCGCCAACGUCCUCAACCUCCAAUGCAUCCCACCACAUGAUGAUGCCUGAAGAGCCUUGGUUUUUUG [C13G C62U],-1.43
